Data reported in patent publication US20050014193A1, “Identification of target-specific folding sites in peptides and proteins” (priority 2003, published 2005).
Square brackets hold non-standard residues; d marks the D form. Ends that are not written are not given here. dChg = N[C@@H](C(=O)O)C1CCCCC1; Chg = N[C@H](C(=O)O)C1CCCCC1; Orn = NCCC[C@H](N)C(=O)O; Dap = NC[C@H](N)C(=O)O; Sar = CNCC(=O)O

What was measured:
oxytocin receptor = target: T1, oxytocin receptor (Rattus norvegicus, UniProt P70536); experiment: 3H-oxytocin binding inhibition, rat uterus cell membranes; settings: for activity at oxytocin receptor: within the Table 30 series; for % Inhibition at 1 μM Oxytocin Receptor (Table 29) / % Inhibition at 1 μM Oxytocin Receptor (Table 30): rat uterus membranes, Re-complexed
T1 construct: cell membranes prepared from rat uterus; from tissue; host or cells: rat uterus membranes
T1 sequence (P70536 1-388): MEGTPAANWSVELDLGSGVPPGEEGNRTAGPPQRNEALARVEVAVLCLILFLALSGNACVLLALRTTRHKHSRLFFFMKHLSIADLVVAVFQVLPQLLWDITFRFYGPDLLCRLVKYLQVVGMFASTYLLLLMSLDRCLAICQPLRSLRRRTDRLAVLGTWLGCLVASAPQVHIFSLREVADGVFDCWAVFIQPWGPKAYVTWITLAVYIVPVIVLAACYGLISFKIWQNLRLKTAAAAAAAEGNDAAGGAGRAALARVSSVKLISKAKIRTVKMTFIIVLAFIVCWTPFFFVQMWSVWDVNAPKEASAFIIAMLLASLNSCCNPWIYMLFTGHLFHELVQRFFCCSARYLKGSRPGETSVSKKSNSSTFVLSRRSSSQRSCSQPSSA
Experimental: The screening of metallopeptides for binding to oxytocin receptor was done using cell membranes prepared from rat uterus. […] The membrane preparations (10-50 μg/well) were incubated with […] ^3H-oxytocin in HEPES Buffer containing 0.2% bovine serum albumin along with a test compound (1 μM final assay concentration) for 2 hours at 4° C. Non-specific binding was determined by addition of 10^−6 M oxytocin instead of the test compound. After incubation, the membranes were filtered and washed three times with ice-cold PBS. The membranes were air-dried and punched directly into scintillation vials. After addition of the scintillation cocktail, the vials were capped and gently shaken for 12 hours to dissolve the radioactivity contained in the filters. The vials were then read for tritium counts in a scintillation counter. Specific binding was determined as the radioactivity in wells containing ^3H-oxytocin alone minus the radioactivity in wells containing 10^−6 M oxytocin. The assay was performed in triplicates. The activity profile for the test compounds were generated by their ability to inhibit specific binding of the radiotracer to its receptor.

vasopressin-1 receptor = target: T2, vasopressin-1 receptor (Rattus norvegicus, UniProt P30560); experiment: 3H-vasopressin-1 antagonist binding inhibition, rat liver cell membranes; settings: Re-complexed
T2 construct: cell membranes prepared from rat liver; from tissue; host or cells: rat liver membranes
Experimental: The screening of compounds for vasopressin-1 receptor was performed using cell membranes prepared from rat liver. The assay was essentially performed as described above for the oxytocin receptor assay. In this assay 2-4 nM ^3H-vasopressin-1 antagonist (obtained from Perkin Elemer-NEN Life Sciences) was used as the radiotracer and Arg^8-vasopressin (1 μM final concentration in the assay) was used to determine non-specific binding. The assay was performed in triplicates. Activity profile for the test compounds were generated by their ability to inhibit specific binding of the radiotracer to its receptor.

angiotensin-II receptor = target: T3, angiotensin-II receptor (Homo sapiens, UniProt P30556); experiment: 125I-Tyr4,Sar1,Ile8-Angiotensin II binding inhibition, human neuroblastoma (KAN-TS) cell membranes; settings: for % Inhibition at 1 μM (Angiotensin Receptor): KAN-TS cell membranes, Re-complexed
T3 construct: cell membranes obtained from human neuroblastoma cells (KAN-TS); endogenous in cells; host or cells: KAN-TS human neuroblastoma cells (membranes)
T3 sequence (P30556 1-359): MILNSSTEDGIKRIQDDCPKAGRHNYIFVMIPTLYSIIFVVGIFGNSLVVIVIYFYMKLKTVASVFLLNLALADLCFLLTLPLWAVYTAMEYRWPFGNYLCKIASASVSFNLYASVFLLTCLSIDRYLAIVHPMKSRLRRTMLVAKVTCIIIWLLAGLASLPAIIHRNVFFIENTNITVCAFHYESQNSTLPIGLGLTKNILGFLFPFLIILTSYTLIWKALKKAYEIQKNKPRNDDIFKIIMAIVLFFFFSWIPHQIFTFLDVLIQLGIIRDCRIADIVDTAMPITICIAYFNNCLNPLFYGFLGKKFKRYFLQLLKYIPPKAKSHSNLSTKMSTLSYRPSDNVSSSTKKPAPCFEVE
Experimental: The screening of compounds for binding to the angiotensin-II receptor was performed using cell membranes obtained from human neuroblastoma cells (KAN-TS). The assay was performed in triplicates, generally as described in Example 4 for oxytocin, except for measurement of receptor bound radioactivity. For angiotensin, a radioiodinated tracer ligand was used (instead of a tritiated ligand), which radioiodinated tracer facilitated direct measurement of bound radioactivity using a gamma counter. A final 1-3 nM concentration of ^125I-Tyr^4, Sar^1, Ile^8-Angiotensin II ligand (obtained from Perkin Elemer-NEN Life Sciences) was used as radiotracer and angiotensin-II (1 μM final assay concentration) was used to measure non-specific binding. After filtration of the incubation medium, followed by washings, drying the filters and punching the filters into test tubes, the filters were counted for radioactivity in a gamma counter. An activity profile for the test compounds was generated by ability to inhibit specific binding of the radiotracer to its receptor.

T2 sequence (P30560 whole entry): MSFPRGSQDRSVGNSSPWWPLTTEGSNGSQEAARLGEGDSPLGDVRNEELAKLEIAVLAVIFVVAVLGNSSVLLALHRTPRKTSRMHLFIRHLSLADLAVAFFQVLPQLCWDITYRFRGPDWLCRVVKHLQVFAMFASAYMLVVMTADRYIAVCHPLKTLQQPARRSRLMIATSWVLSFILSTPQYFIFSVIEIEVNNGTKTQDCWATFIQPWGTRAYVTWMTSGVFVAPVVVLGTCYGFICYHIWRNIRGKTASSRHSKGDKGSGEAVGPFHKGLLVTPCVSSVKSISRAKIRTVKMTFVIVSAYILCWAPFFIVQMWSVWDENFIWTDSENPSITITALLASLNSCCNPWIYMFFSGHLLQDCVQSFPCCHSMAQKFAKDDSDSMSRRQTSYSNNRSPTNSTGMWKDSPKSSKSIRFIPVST

Row | Substance | % Inhibition at 1 μM Vasopressin-1 Receptor (Table 30) (vasopressin-1 receptor) | % Inhibition at 1 μM Oxytocin Receptor (Table 29) (oxytocin receptor) | also measured
1 | Ala-Tyr-Ile-Gln-Asn-Cys-Ala-Pro-Leu-Gly-NH2 (AYIQNCAPLG-NH2; not fully specified (bridges); printed as Ala-Tyr-Ile-Gln-Asn-Cys-Ala-Pro-Leu-Gly-NH2; also: oxorhenium(V) N3S1 metal chelate (Re=O)) [SEQ ID NO:155] | 0% |  | activity at oxytocin receptor (oxytocin receptor): maximal activity
2 | Caca-D-Trp-Ile-Thr-Cys-Dap-Ala-Pro-Orn-NH2 |  | 0% | % Inhibition at 1 μM Vasopressin-1 Receptor (Table 29) (vasopressin-1 receptor): 0%
3 | Sar-Arg-Val-Tyr-Ile-His-Cys-Gly-Thr ([Sar]RVYIHCGT; not fully specified (bridges); printed as Sar-Arg-Val-Tyr-Ile-His-Cys-Gly-Thr; also: oxorhenium(V) N3S1 metal chelate (Re=O)) [SEQ ID NO:166] |  |  | percent inhibition at angiotensin receptor compared (angiotensin-II receptor; Gly for Pro substitution): significantly less than in SEQ ID NO:161
4 | Caca-D-Trp-Ile-Thr-Dap-Ala-Ala-Orn-Cys-NH2 |  | 0% | 
5 | Caca-D-Trp-Ile-Thr-Dap-Ala-Ala-Cys-Orn-NH2 |  | 0% | % Inhibition at 1 μM Vasopressin-1 Receptor (Table 29) (vasopressin-1 receptor): 0%
6 | Caca-D-Trp-Ile-Thr-Dap-Ala-Cys-Ala-Orn-NH2 |  | 0% | % Inhibition at 1 μM Vasopressin-1 Receptor (Table 29) (vasopressin-1 receptor): 0%
7 | Caca-D-Trp-Ile-Thr-Dap-Cys-Ala-Pro-Orn-NH2 |  | 9% | 
8 | Sar-Arg-Val-Tyr-Ile-His-Gly-Cys-Thr ([Sar]RVYIHGCT; not fully specified (bridges); printed as Sar-Arg-Val-Tyr-Ile-His-Gly-Cys-Thr; also: oxorhenium(V) N3S1 metal chelate (Re=O)) [SEQ ID NO:160] |  |  | % Inhibition at 1 μM (Angiotensin Receptor) (angiotensin-II receptor): 5%
9 | Ala-Tyr-Ile-Gln-Asn-Ala-Ala-Leu-Gly-Cys-NH2 (AYIQNAALGC-NH2; not fully specified (bridges); printed as Ala-Tyr-Ile-Gln-Asn-Ala-Ala-Leu-Gly-Cys-NH2; also: oxorhenium(V) N3S1 metal chelate (Re=O)) [SEQ ID NO:150] | 0% |  | % Inhibition at 1 μM Oxytocin Receptor (Table 30) (oxytocin receptor): 0%
10 | Ala-Tyr-Ile-Gln-Cys-Asn-Ala-Pro-Leu-Gly-NH2 (AYIQCNAPLG-NH2; not fully specified (bridges); printed as Ala-Tyr-Ile-Gln-Cys-Asn-Ala-Pro-Leu-Gly-NH2; also: oxorhenium(V) N3S1 metal chelate (Re=O)) [SEQ ID NO:156] | 0% |  | activity at oxytocin receptor (oxytocin receptor): also active
11 | Caca-D-Trp-Ile-Thr-Dap-Ala-Cys-Pro-Orn-NH2 |  | 0% | % Inhibition at 1 μM Vasopressin-1 Receptor (Table 29) (vasopressin-1 receptor): 0%
12 | Sar-Arg-Cys-Val-Tyr-Ile-His-Pro-Thr ([Sar]RCVYIHPT; not fully specified (bridges); printed as Sar-Arg-Cys-Val-Tyr-Ile-His-Pro-Thr; also: oxorhenium(V) N3S1 metal chelate (Re=O)) [SEQ ID NO:165] |  |  | % Inhibition at 1 μM (Angiotensin Receptor) (angiotensin-II receptor): 1%
13 | [dChg][dW]CIT[Dap]AP[Orn]-NH2 |  | 0% | % Inhibition at 1 μM Vasopressin-1 Receptor (Table 29) (vasopressin-1 receptor): 8%
14 | Ala-Tyr-Ile-Gln-Asn-Ala-Cys-Ala-Leu-Gly-NH2 (AYIQNACALG-NH2; not fully specified (bridges); printed as Ala-Tyr-Ile-Gln-Asn-Ala-Cys-Ala-Leu-Gly-NH2; also: oxorhenium(V) N3S1 metal chelate (Re=O)) [SEQ ID NO:154] | 0% |  | activity at oxytocin receptor (oxytocin receptor): also active
15 | Ala-Tyr-Cys-Ile-Gln-Asn-Ala-Pro-Leu-Gly-NH2 (AYCIQNAPLG-NH2; not fully specified (bridges); printed as Ala-Tyr-Cys-Ile-Gln-Asn-Ala-Pro-Leu-Gly-NH2; also: oxorhenium(V) N3S1 metal chelate (Re=O)) [SEQ ID NO:158] | 1% |  | % Inhibition at 1 μM Oxytocin Receptor (Table 30) (oxytocin receptor): 6%
16 | Sar-Arg-Val-Cys-Tyr-Ile-His-Pro-Thr ([Sar]RVCYIHPT; not fully specified (bridges); printed as Sar-Arg-Val-Cys-Tyr-Ile-His-Pro-Thr; also: oxorhenium(V) N3S1 metal chelate (Re=O)) [SEQ ID NO:164] |  |  | % Inhibition at 1 μM (Angiotensin Receptor) (angiotensin-II receptor): 1%
17 | [Chg][dW]CIT[Dap]AP[Orn]-NH2 |  | 0% | % Inhibition at 1 μM Vasopressin-1 Receptor (Table 29) (vasopressin-1 receptor): 0%
18 | Ala-Tyr-Ile-Cys-Gln-Asn-Ala-Pro-Leu-Gly-NH2 (AYICQNAPLG-NH2; not fully specified (bridges); printed as Ala-Tyr-Ile-Cys-Gln-Asn-Ala-Pro-Leu-Gly-NH2; also: oxorhenium(V) N3S1 metal chelate (Re=O)) [SEQ ID NO:157] | 0% |  | % Inhibition at 1 μM Oxytocin Receptor (Table 30) (oxytocin receptor): 0%
19 | Caca-D-Trp-Ile-Cys-Thr-Dap-Ala-Pro-Orn-NH2 |  | 0% | 
20 | Ala-Tyr-Ile-Gln-Asn-Ala-Pro-Leu-Gly-Cys-NH2 (AYIQNAPLGC-NH2; not fully specified (bridges); printed as Ala-Tyr-Ile-Gln-Asn-Ala-Pro-Leu-Gly-Cys-NH2; also: oxorhenium(V) N3S1 metal chelate (Re=O)) [SEQ ID NO:149] | 0% |  | % Inhibition at 1 μM Oxytocin Receptor (Table 30) (oxytocin receptor): 6%
21 | Ala-Tyr-Ile-Gln-Asn-Ala-Ala-Cys-Leu-Gly-NH2 (AYIQNAACLG-NH2; not fully specified (bridges); printed as Ala-Tyr-Ile-Gln-Asn-Ala-Ala-Cys-Leu-Gly-NH2; also: oxorhenium(V) N3S1 metal chelate (Re=O)) [SEQ ID NO:152] | 1% |  | % Inhibition at 1 μM Oxytocin Receptor (Table 30) (oxytocin receptor): 0%
22 | Ala-Tyr-Ile-Gln-Asn-Ala-Ala-Leu-Cys-Gly-NH2 (AYIQNAALCG-NH2; not fully specified (bridges); printed as Ala-Tyr-Ile-Gln-Asn-Ala-Ala-Leu-Cys-Gly-NH2; also: oxorhenium(V) N3S1 metal chelate (Re=O)) [SEQ ID NO:151] | 0% |  | % Inhibition at 1 μM Oxytocin Receptor (Table 30) (oxytocin receptor): 0%
23 | Pmp-D-Trp-Cys-Ile-Thr-Dap-Ala-Pro-Orn-NH2 |  | 0% | 
24 | Ala-Tyr-Ile-Gln-Asn-Ala-Cys-Pro-Leu-Gly-NH2 (AYIQNACPLG-NH2; not fully specified (bridges); printed as Ala-Tyr-Ile-Gln-Asn-Ala-Cys-Pro-Leu-Gly-NH2; also: oxorhenium(V) N3S1 metal chelate (Re=O)) [SEQ ID NO:153] | 0% |  | % Inhibition at 1 μM Oxytocin Receptor (Table 30) (oxytocin receptor): 2%
